Seven substances from article PMC12661439 can be followed below.

Assay [1] deals with HaloTag-AtCRY2(D387A) (Arabidopsis thaliana). Put plainly: photon counting histogram (PCH) analysis (fluorescence fluctuation spectroscopy); dark state; HaloTag fusions labelled with 200 nM JF646 in living HEK293T cells, UBC promoter, protomer about 50-1,700 nM; single-point measurement of 30 s, 20 kHz binning, 15 ns dead time, ambient temperature (22-23°C); brightness relative to the monomeric HaloTag standard and corrected for 70% labelling; population average; oligomer percent from a monomer-dimer (VfAuLOV) or monomer-tetramer (AtCRY2) model.

Assay [2] shares this target. Put plainly: photon counting histogram (PCH) analysis (fluorescence fluctuation spectroscopy); light state: the same living HEK293T cells measured at once after 5 min of blue light (about 6 mW/cm^2 at the sample plane, 450-490 nm), one 30 s measurement a cell; HaloTag-JF646 fusions; brightness relative to the monomeric standard, corrected for 70% labelling; oligomer percent from a monomer-dimer (VfAuLOV) or monomer-tetramer (AtCRY2) model.

In assay [3] the target is HaloTag-AtCRY2(R439L) (Arabidopsis thaliana). Put plainly: photon counting histogram (PCH) analysis (fluorescence fluctuation spectroscopy); dark state; HaloTag fusions labelled with 200 nM JF646 in living HEK293T cells, UBC promoter, protomer about 50-1,700 nM; single-point measurement of 30 s, 20 kHz binning, 15 ns dead time, ambient temperature (22-23°C); brightness relative to the monomeric HaloTag standard and corrected for 70% labelling; population average; oligomer percent from a monomer-dimer (VfAuLOV) or monomer-tetramer (AtCRY2) model.

For assay [4] the target is unchanged. Put plainly: photon counting histogram (PCH) analysis (fluorescence fluctuation spectroscopy); light state: the same living HEK293T cells measured at once after 5 min of blue light (about 6 mW/cm^2 at the sample plane, 450-490 nm), one 30 s measurement a cell; HaloTag-JF646 fusions; brightness relative to the monomeric standard, corrected for 70% labelling; oligomer percent from a monomer-dimer (VfAuLOV) or monomer-tetramer (AtCRY2) model.

Assay [5] addresses HaloTag-AtCRY2(W374A) (Arabidopsis thaliana). Description: photon counting histogram (PCH) analysis (fluorescence fluctuation spectroscopy); dark state; HaloTag fusions labelled with 200 nM JF646 in living HEK293T cells, UBC promoter, protomer about 50-1,700 nM; single-point measurement of 30 s, 20 kHz binning, 15 ns dead time, ambient temperature (22-23°C); brightness relative to the monomeric HaloTag standard and corrected for 70% labelling; population average; oligomer percent from a monomer-dimer (VfAuLOV) or monomer-tetramer (AtCRY2) model.

Assay [6] has the same target. Put plainly: photon counting histogram (PCH) analysis (fluorescence fluctuation spectroscopy); light state: the same living HEK293T cells measured at once after 5 min of blue light (about 6 mW/cm^2 at the sample plane, 450-490 nm), one 30 s measurement a cell; HaloTag-JF646 fusions; brightness relative to the monomeric standard, corrected for 70% labelling; oligomer percent from a monomer-dimer (VfAuLOV) or monomer-tetramer (AtCRY2) model.

Assay [7] concerns the target HaloTag-AtCRY2: photolyase homology region of cryptochrome 2 from Arabidopsis thaliana fused to HaloTag (Arabidopsis thaliana). Put plainly: photon counting histogram (PCH) analysis (fluorescence fluctuation spectroscopy); dark state; HaloTag fusions labelled with 200 nM JF646 in living HEK293T cells, UBC promoter, protomer about 50-1,700 nM; single-point measurement of 30 s, 20 kHz binning, 15 ns dead time, ambient temperature (22-23°C); brightness relative to the monomeric HaloTag standard and corrected for 70% labelling; population average; oligomer percent from a monomer-dimer (VfAuLOV) or monomer-tetramer (AtCRY2) model.

For assay [8] the target is unchanged. Description: photon counting histogram (PCH) analysis (fluorescence fluctuation spectroscopy); light state: the same living HEK293T cells measured at once after 5 min of blue light (about 6 mW/cm^2 at the sample plane, 450-490 nm), one 30 s measurement a cell; HaloTag-JF646 fusions; brightness relative to the monomeric standard, corrected for 70% labelling; oligomer percent from a monomer-dimer (VfAuLOV) or monomer-tetramer (AtCRY2) model.

Assay [9] shares this target. Description: photon counting histogram (PCH) analysis (fluorescence fluctuation spectroscopy); dissociation kinetics in living HEK293T cells: relative brightness measured at times after a 5-min exposure to blue light was turned off, each measurement 30 s; averaged curves fitted with a single-exponential decay; half-life = ln2 x lifetime.
For assay [10], the target named is HaloTag-HsCRY2: human CRY2 photolyase homology region fused to HaloTag (human). Description: photon counting histogram (PCH) analysis (fluorescence fluctuation spectroscopy); dark state; HaloTag fusions labelled with 200 nM JF646 in living HEK293T cells, UBC promoter, protomer about 50-1,700 nM; single-point measurement of 30 s, 20 kHz binning, 15 ns dead time, ambient temperature (22-23°C); brightness relative to the monomeric HaloTag standard and corrected for 70% labelling; population average; oligomer percent from a monomer-dimer (VfAuLOV) or monomer-tetramer (AtCRY2) model.

Assay [11] shares this target. Put plainly: photon counting histogram (PCH) analysis (fluorescence fluctuation spectroscopy); light state: the same living HEK293T cells measured at once after 5 min of blue light (about 6 mW/cm^2 at the sample plane, 450-490 nm), one 30 s measurement a cell; HaloTag-JF646 fusions; brightness relative to the monomeric standard, corrected for 70% labelling; oligomer percent from a monomer-dimer (VfAuLOV) or monomer-tetramer (AtCRY2) model.

Assay [12] addresses HaloTag-VfAuLOV: light-oxygen-voltage (LOV) domain of Vaucheria frigida Aurochrome1 fused to HaloTag (Vaucheria frigida). Put plainly: photon counting histogram (PCH) analysis (fluorescence fluctuation spectroscopy); dark state; HaloTag fusions labelled with 200 nM JF646 in living HEK293T cells, UBC promoter, protomer about 50-1,700 nM; single-point measurement of 30 s, 20 kHz binning, 15 ns dead time, ambient temperature (22-23°C); brightness relative to the monomeric HaloTag standard and corrected for 70% labelling; population average; oligomer percent from a monomer-dimer (VfAuLOV) or monomer-tetramer (AtCRY2) model.

The target is the same in assay [13]. Put plainly: photon counting histogram (PCH) analysis (fluorescence fluctuation spectroscopy); light state: the same living HEK293T cells measured at once after 5 min of blue light (about 6 mW/cm^2 at the sample plane, 450-490 nm), one 30 s measurement a cell; HaloTag-JF646 fusions; brightness relative to the monomeric standard, corrected for 70% labelling; oligomer percent from a monomer-dimer (VfAuLOV) or monomer-tetramer (AtCRY2) model.

Assay [14] shares this target. Description: photon counting histogram (PCH) analysis (fluorescence fluctuation spectroscopy); dissociation kinetics in living HEK293T cells: relative brightness measured at times after a 5-min exposure to blue light was turned off, each measurement 30 s; averaged curves fitted with a single-exponential decay; half-life = ln2 x lifetime.
Assay [15] addresses HaloTag-bZip-VfAuLOV: VfAuLOV with the basic residues and leucine zipper domain of Vaucheria frigida Aureochrome1, fused to HaloTag (Vaucheria frigida). Description: photon counting histogram (PCH) analysis (fluorescence fluctuation spectroscopy); dark state; HaloTag fusions labelled with 200 nM JF646 in living HEK293T cells, UBC promoter, protomer about 50-1,700 nM; single-point measurement of 30 s, 20 kHz binning, 15 ns dead time, ambient temperature (22-23°C); brightness relative to the monomeric HaloTag standard and corrected for 70% labelling; population average; oligomer percent from a monomer-dimer (VfAuLOV) or monomer-tetramer (AtCRY2) model.

The target is the same in assay [16]. Put plainly: photon counting histogram (PCH) analysis (fluorescence fluctuation spectroscopy); light state: the same living HEK293T cells measured at once after 5 min of blue light (about 6 mW/cm^2 at the sample plane, 450-490 nm), one 30 s measurement a cell; HaloTag-JF646 fusions; brightness relative to the monomeric standard, corrected for 70% labelling; oligomer percent from a monomer-dimer (VfAuLOV) or monomer-tetramer (AtCRY2) model.

The target is the same in assay [17]. Description: photon counting histogram (PCH) analysis (fluorescence fluctuation spectroscopy); dissociation kinetics in living HEK293T cells: relative brightness measured at times after a 5-min exposure to blue light was turned off, each measurement 30 s; averaged curves fitted with a single-exponential decay; half-life = ln2 x lifetime.

For “HaloTag-AtCRY2(D387A) (domain or fragment)”, in [1], the oligomer percentage (tetramer fraction, monomer-tetramer model) is < 1% and the relative brightness (corrected; monomer = 1, tetramer = 4) is 1.1. Further, in assay [2], the oligomer percentage (tetramer fraction, monomer-tetramer model) is < 1% and the relative brightness (corrected; monomer = 1, tetramer = 4) was found to be 1.1.

For the substance “HaloTag-AtCRY2(R439L) (domain or fragment)”, in assay [3], the oligomer percentage (tetramer fraction, monomer-tetramer model) was < 1% and the relative brightness (corrected; monomer = 1, tetramer = 4) was 1.1. In addition, in assay [4], the oligomer percentage (tetramer fraction, monomer-tetramer model) is < 1% and the relative brightness (corrected; monomer = 1, tetramer = 4) came to 1.1.

Take “HaloTag-AtCRY2(W374A) (domain or fragment)”: in assay [5], the oligomer percentage (tetramer fraction, monomer-tetramer model) is 5% and the relative brightness (corrected; monomer = 1, tetramer = 4) was 1.5. Besides, in assay [6], the oligomer percentage (tetramer fraction, monomer-tetramer model) stood at 20% and the relative brightness (corrected; monomer = 1, tetramer = 4) is 2.5.

Usually stoichiometry N stands for a count of units in the complex or per binding partner. As to “HaloTag-AtCRY2: photolyase homology region of cryptochrome 2 from Arabidopsis thaliana fused to HaloTag (domain or fragment)”, in assay [7], the oligomer percentage (tetramer fraction, monomer-tetramer model) is < 1%; the oligomer percentage (tetramer fraction, monomer-tetramer model; only data above 500 nM) was 1.8%; the relative brightness (corrected; monomer = 1, tetramer = 4) turned out to be 1.1; the relative brightness (corrected; only data above 500 nM) turned out to be 1.2. In [8], this substance had an oligomer percentage (tetramer fraction, monomer-tetramer model) of 27%; a relative brightness (corrected; monomer = 1, tetramer = 4) of 2.8; a stoichiometry N of 4. The dissociation half-life in assay [9] was determined as 4.29 min.

In the case of “HaloTag-HsCRY2: human CRY2 photolyase homology region fused to HaloTag (domain or fragment)”, the relative brightness (corrected; monomer = 1) came out at 1.2 in assay [10] and 1.3 in assay [11].

In assay [12], “HaloTag-VfAuLOV: light-oxygen-voltage (LOV) domain of Vaucheria frigida Aurochrome1 fused to HaloTag (domain or fragment)” had an oligomer percentage (dimer fraction, monomer-dimer model) of 18% and a relative brightness (corrected; monomer = 1, dimer = 2) of 1.3. In assay [13], this substance registered an oligomer percentage (dimer fraction, monomer-dimer model) of 100%; a relative brightness (corrected; monomer = 1, dimer = 2) of 2; a stoichiometry N of 2. Moreover, in assay [14], the dissociation half-life is 8.73 min.

In assay [15], “HaloTag-bZip-VfAuLOV: VfAuLOV with the basic residues and leucine zipper domain of Vaucheria frigida Aureochrome1, fused to HaloTag (domain or fragment)” came in with an oligomer percentage (dimer fraction, monomer-dimer model) of 33% and a relative brightness (corrected; monomer = 1, dimer = 2) of 1.5. Also, in assay [16], the oligomer percentage (dimer fraction, monomer-dimer model) stood at 67%; the relative brightness (corrected; monomer = 1, dimer = 2) came to 1.8; the stoichiometry N came out at 2. The substance further yielded a dissociation half-life in [17] of 6.89 min.
